From patent US20140178332A1 (published 2014)

Columns and labels:
[1] = target: T1, recombinant purified cyno IL-12 p70 (cynomolgus monkey); assay: cell-based or functional assay
T1 chain 1: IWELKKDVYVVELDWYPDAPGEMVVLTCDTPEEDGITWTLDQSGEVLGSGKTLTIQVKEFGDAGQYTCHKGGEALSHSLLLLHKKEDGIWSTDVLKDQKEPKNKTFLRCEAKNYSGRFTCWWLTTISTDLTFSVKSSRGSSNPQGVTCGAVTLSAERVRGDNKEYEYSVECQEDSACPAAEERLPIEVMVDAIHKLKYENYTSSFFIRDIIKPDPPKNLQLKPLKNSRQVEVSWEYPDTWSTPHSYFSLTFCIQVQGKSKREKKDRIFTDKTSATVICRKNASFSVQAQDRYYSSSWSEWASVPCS
T1 chain 2: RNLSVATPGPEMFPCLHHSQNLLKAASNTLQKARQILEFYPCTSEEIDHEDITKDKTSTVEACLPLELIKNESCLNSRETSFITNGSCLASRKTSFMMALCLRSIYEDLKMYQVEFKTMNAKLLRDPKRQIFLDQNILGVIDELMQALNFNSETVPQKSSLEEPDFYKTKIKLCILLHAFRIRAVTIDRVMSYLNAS

[2] = target: T2, recombinant purified human IL-12 p70 (human, UniProt P29459 23-219); assay: cell-based or functional assay
T2 sequence 1: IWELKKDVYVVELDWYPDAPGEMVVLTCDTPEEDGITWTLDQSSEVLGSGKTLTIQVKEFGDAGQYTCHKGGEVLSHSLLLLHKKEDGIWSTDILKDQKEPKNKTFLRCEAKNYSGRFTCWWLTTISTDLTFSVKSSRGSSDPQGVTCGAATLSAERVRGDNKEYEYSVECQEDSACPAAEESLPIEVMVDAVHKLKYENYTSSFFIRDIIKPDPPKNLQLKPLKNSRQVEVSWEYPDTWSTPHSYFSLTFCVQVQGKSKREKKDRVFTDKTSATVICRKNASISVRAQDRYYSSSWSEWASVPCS
T2 sequence 2: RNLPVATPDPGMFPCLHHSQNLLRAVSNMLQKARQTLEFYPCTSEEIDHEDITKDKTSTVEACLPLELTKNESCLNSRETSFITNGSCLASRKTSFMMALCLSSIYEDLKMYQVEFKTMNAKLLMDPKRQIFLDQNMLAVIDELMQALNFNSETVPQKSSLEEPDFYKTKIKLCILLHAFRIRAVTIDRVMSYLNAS

[3] = target: T2, recombinant purified human IL-12 p70; assay: SPR (Biacore) as in Example 1.1.B, human IL-12p70
Method: Approximately 5000 RU of goat anti-mouse IgG, (Fcγ), fragment specific polyclonal antibody (Pierce Biotechnology Inc, Rockford, Ill.) diluted in 10 mM sodium acetate (pH 4.5) was directly immobilized across a CM5 research grade biosensor chip using a standard amine coupling kit according to manufacturer's instructions and procedures at 25 μg/ml. Unreacted moieties on the biosensor surface were blocked with ethanolamine. Modified carboxymethyl dextran surface in flowcell 2 and 4 was used as a reaction surface. Unmodified carboxymethyl dextran without goat anti-mouse IgG in flow cell 1 and 3 was used as the reference surface. For kinetic analysis, rate equations derived from the 1:1 Langmuir binding model were fitted simultaneously to association and dissociation phases of all eight injections (using global fit analysis) with the use of Biaevaluation 4.0.1 software. Purified antibodies were diluted in HEPES-buffered saline for capture across goat anti-mouse IgG specific reaction surfaces. Mouse antibodies to be captured as a ligand (25 μg/ml) were injected over reaction matrices at a flow rate of 5 μl/min. The association and dissociation rate constants, kₒₙ (unit M⁻¹ s⁻¹) and koff (unit s⁻¹) were determined under a continuous flow rate of 25 μl/min. Rate constants were derived by making kinetic binding measurements at ten different antigen concentrations ranging from 10-200 nM. The equilibrium dissociation constant (unit M) of the reaction between mouse antibodies and recombinant purified human IL-12 p70 or recombinant purified human IL-12 p40 was then calculated from the kinetic rate constants by the following formula: KD=koff/kₒₙ. Binding is recorded as a function of time and kinetic rate constants are calculated. In this assay, on-rates as fast as 10⁶M⁻¹ s⁻¹ and off-rates as slow as 10⁻⁶ can be measured. […]

| Av. IC50 (nM) Cyno IL-12, PHA blast assay [1] [nM] | Av. IC50 (nM) Hu IL-12, PHA blast assay [2] [nM] | Kd [3] [nM] | koff [3] [s⁻¹] | kon [3] [M⁻¹ s⁻¹] | Binder |
| --- | --- | --- | --- | --- | --- |
| 1.5 | 0.47 | 0.12 | 2.9e-05 | 260000 | CDR grafted anti IL-12p40 antibody 1D4.1 (antibody, human IgG1, kappa, L234A L235A, V domains shown, Full-length CDR-grafted antibody, COS cells) VH: EVTLRESGPALVKPTQTLTLTCTFSGFSLSKSVMGVSWIRQPPGKALEWLAHIYWDDDKYYNPSLKSRLTISKDTSKNQVVLTMTNMDPVDTATYYCARRGIRSAMDYWGQGTTVTVSS VL: DIVMTQSPDSLAVSLGERATINCKASQSVSNDVAWYQQKPGQPPKLLIYYASNRYTGVPDRFSGSGSGTDFTLTISSLQAEDVAVYYCQQDYNSPWTFGGGTKVEIKR |
| 0.14 | 0.59 |  |  |  | CDR grafted anti IL-12p40 antibody 1A6.6 (antibody, human IgG1, kappa, L234A L235A, V domains shown, Full-length CDR-grafted antibody, COS cells) VH: EVTLKESGPVLVKPTETLTLTCTVSGFSLSTSGMGVSWIRQPPGKALEWLAHIWWDGDNYYNPSLKSRLTISKDTSKSQVVLTMTNMDPVDTATYYCARRTRVNYAMDYWGQGTTVTVSS VL: DIVMTQSPDSLAVSLGERATINCKASQSVSNDVAWYQQKPGQPPKLLIYYASNRYTGVPDRFSGSGSGTDFTLTISSLQAEDVAVYYCQQDYNSPWTFGGGTKVEIKR |
| 1.1 | 1.9 | 0.43 | 5.6e-05 | 130000 | CDR grafted anti IL-12p40 antibody 1A6.5 (antibody, human IgG1, kappa, L234A L235A, V domains shown, Full-length CDR-grafted antibody, COS cells) VH: EVTLRESGPALVKPTQTLTLTCTFSGFSLSTSGMGVSWIRQPPGKALEWLAHIWWDGDNYYNPSLKSRLTISKDTSKNQVVLTMTNMDPVDTATYYCARRTRVNYAMDYWGQGTTVTVSS VL: EIVMTQSPATLSVSPGERATLSCKASQSVSNDVAWYQQKPGQAPRLLIYYASNRYTGIPARFSGSGSGTEFTLTISSLQSEDFAVYYCQQDYNSPWTFGGGTKVEIKR |
| 4.6 | 2.8 | 1.7 | 0.00087 | 520000 | CDR grafted anti IL-12p40 antibody 8E1.1 (antibody, human IgG1, kappa, L234A L235A, V domains shown, Full-length CDR-grafted antibody, COS cells) VH: EVQLVESGGGLVQPGGSLRLSCAASGFTFSDYGMVWVRQAPGKGLEWVGSISSGSSNIYYADTVKGRFTISRDDSKNSLYLQMNSLKTEDTAVYYCARNPYWGQGTTVTVSS VL: DIQMTQSPSSLSASVGDRVTITCKASQNVGTNVAWYQQKPEKAPKSLIYSASHRYSGVPSRFSGSGSGTDFTLTISSLQPEDFATYYCQQYNSYPLTFGGGTKVEIKR |
| 1.2 | 0.56 | 0.22 | 9.1e-05 | 420000 | CDR grafted anti IL-12p40 antibody 3G7.1 (antibody, human IgG1, kappa, L234A L235A, V domains shown, Full-length CDR-grafted antibody, COS cells) VH: EVQLVQSGAEVKKPGSSVKVSCKASGGTFSDYWIEWVRQAPGQGLEWMGGFSHGSGSTNYNEKFKGRVTITADKSTSTAYMELSSLRSEDTAVYYCARRRFRGMDYWGQGTTVTVSS VL: DIVMTQSPDSLAVSLGERATINCKASQSVSNDVAWYQQKPGQPPKLLIYYASNRYTGVPDRFSGSGSGTDFTLTISSLQAEDVAVYYCQQDYSSPWSFGGGTKVEIKR |
| 0.7 | 0.24 | 0.23 | 0.00014 | 610000 | CDR grafted anti IL-12p40 antibody 3G7.2 (antibody, human IgG1, kappa, L234A L235A, V domains shown, Full-length CDR-grafted antibody, COS cells) VH: EVQLVQSGAEVKKPGASVKVSCKASGYTFTDYWIEWVRQAPGQGLEWMGGFSHGSGSTNYNEKFKGRVTMTTDTSTSTAYMELRSLRSDDTAVYYCARRRFRGMDYWGQGTTVTVSS VL: EIVMTQSPATLSVSPGERATLSCKASQSVSNDVAWYQQKPGQAPRLLIYYASNRYTGIPARFSGSGSGTEFTLTISSLQSEDFAVYYCQQDYSSPWSFGGGTKVEIKR |

Continued, binder first:

| Binder | Av. IC50 (nM) Cyno IL-12, PHA blast assay [1] [nM] | Av. IC50 (nM) Hu IL-12, PHA blast assay [2] [nM] | Kd [3] [nM] | koff [3] [s⁻¹] | kon [3] [M⁻¹ s⁻¹] |
| --- | --- | --- | --- | --- | --- |
| CDR grafted anti IL-12p40 antibody 1D4.2 (antibody, human IgG1, kappa, L234A L235A, V domains shown, Full-length CDR-grafted antibody, COS cells) VH: EVTLKESGPVLVKPTETLTLTCTVSGFSLSKSVMGVSWIRQPPGKALEWLAHIYWDDDKYYNPSLKSRLTISKDTSKSQVVLTMTNMDPVDTATYYCARRGIRSAMDYWGQGTTVTVSS VL: EIVMTQSPATLSVSPGERATLSCKASQSVSNDVAWYQQKPGQAPRLLIYYASNRYTGIPARFSGSGSGTEFTLTISSLQSEDFAVYYCQQDYNSPWTFGGGTKVEIKR | 3 | 3 | 1.7 | 0.00026 | 160000 |
| CDR grafted anti IL-12p40 antibody 1D4.3 (antibody, human IgG1, kappa, L234A L235A, V domains shown, Full-length CDR-grafted antibody, COS cells) VH: EVTLRESGPALVKPTQTLTLTCTFSGFSLSKSVMGVSWIRQPPGKALEWLAHIYWDDDKYYNPSLKSRLTISKDTSKNQVVLTMTNMDPVDTATYYCARRGIRSAMDYWGQGTTVTVSS VL: EIVMTQSPATLSVSPGERATLSCKASQSVSNDVAWYQQKPGQAPRLLIYYASNRYTGIPARFSGSGSGTEFTLTISSLQSEDFAVYYCQQDYNSPWTFGGGTKVEIKR | 1.6 | 0.83 | 0.25 | 5.3e-05 | 210000 |
| CDR grafted anti IL-12p40 antibody 1A6.1 (antibody, human IgG1, kappa, L234A L235A, V domains shown, Full-length CDR-grafted antibody, COS cells) VH: EVTLRESGPALVKPTQTLTLTCTFSGFSLSTSGMGVSWIRQPPGKALEWLAHIWWDGDNYYNPSLKSRLTISKDTSKNQVVLTMTNMDPVDTATYYCARRTRVNYAMDYWGQGTTVTVSS VL: DIVMTQSPDSLAVSLGERATINCKASQSVSNDVAWYQQKPGQPPKLLIYYASNRYTGVPDRFSGSGSGTDFTLTISSLQAEDVAVYYCQQDYNSPWTFGGGTKVEIKR | 0.57 | 0.48 | 0.27 | 2.9e-05 | 110000 |
| CDR grafted anti IL-12p40 antibody 1A6.2 (antibody, human IgG1, kappa, L234A L235A, V domains shown, Full-length CDR-grafted antibody, COS cells) VH: EVTLKESGPVLVKPTETLTLTCTVSGFSLSTSGMGVSWIRQPPGKALEWLAHIWWDGDNYYNPSLKSRLTISKDTSKSQVVLTMTNMDPVDTATYYCARRTRVNYAMDYWGQGTTVTVSS VL: EIVMTQSPATLSVSPGERATLSCKASQSVSNDVAWYQQKPGQAPRLLIYYASNRYTGIPARFSGSGSGTEFTLTISSLQSEDFAVYYCQQDYNSPWTFGGGTKVEIKR | 0.84 | 1.1 | 0.54 | 5.4e-05 | 100000 |
